Here are results for two molecules from US7462695B2, “Insect chymotrypsin and inhibitors thereof” (Hexima Limited, priority 2003, dated 2008).

Where only a bound is given, the exact number is not on record here.

In experiment [1] the test system is chymotrypsin activity in gut extracts of H. punctigera larvae. Briefly: Inhibition of chymotrypsin activity in individual larval gut extracts (FIG. 2F). Format: biochemical, Helicoverpa punctigera. The following applies: pre-incubated with 80 nM. The text has this: FIG. 2 is a graphical representation showing growth of H. punctigera larvae fed on either low protein haricot bean artificial diet or cotton leaf artificial diet, in the presence or absence of 0.26% (w/v) NaPIs. Weight gain (mg) was monitored for 21 days. […] (A) Growth of larvae. (B) Relative size of larvae at 21 days after feeding on cotton artificial diet, in the presence or absence of 0.26% NaPIs. […] (C) The effect of NaPIs on gut trypsin and chymotrypsin activity. When each H. punctigera larva reached the late fourth/early fifth instar stage of development, the gut was removed and gut extract prepared prior to assays for trypsin and chymotrypsin activity. […] Trypsin activity was determined using BApNA substrate and chymotrypsin activity with SAAPFpNA substrate. Units of activity are expressed as change in absorbance at 405 nm/min/mg gut extract protein (±standard deviation). […] Trypsin activity was determined using BApNA substrate and chymotrypsin activity with SAAPFpNA substrate. Units of activity are expressed as change in absorbance at 405 nm/min/mg faecal extract protein (±standard deviation). […] Frass extracts were analysed on 15% ((w/v)) SDS-PAGE and transferred to nitrocellulose. […] Units of activity are expressed as substrate hydrolysis at 405 nm/min/mg extract protein (±standard deviation). […] Trypsin activity was determined using BApNA substrate. […]

Experiment [2] has as its system chymotrypsin activity in unfractionated gut extracts from H. punctigera. Briefly: Chymotrypsin activity in unfractionated gut extracts with proteinase inhibitors (FIG. 3). It is filed as biochemical, Helicoverpa punctigera. The conditions noted are these: larvae raised on haricot bean diet without added proteinase inhibitors; substrate SAAPFpNA. The protocol:
FIG. 3 is a graphical representation showing the effect of various proteinase inhibitors on the chymotrypsin activity in unfractionated gut extracts from H. punctigera. Proteinase inhibitors were mixed with 1 μg of protein from an unfractionated gut extract before incubation with the chymotrypsin substrate N-succinyl-Ala-Ala-Pro-Phe-p-nitroanilide. Inhibition is expressed as a percentage of the total activity in the control samples.
Fourth-instar larvae were killed using ethyl-acetate prior the removal of individual gut which were then homogenized in a mortar and pestle in an equal amount [(w/v)] of 50 mM Tris-HCl, pH 8.0 containing 100 μM benzamidine. Insoluble material was removed by centrifugation at 20,000 rpm for 15 min at 4° C. and total protein concentration determined using the Bradford method (Bradford, Anal Biochem 72: 248-254, 1976) with reagents from BioRad and BSA as a standard.
Unfractionated gut extract containing approximately 1 μg of buffer soluble protein was added to 10 μL CAPS buffer (0.5 M, 3-[cyclohexylamino]-1-propane-sulfonic acid, pH 10) and made to a final volume of 100 μL in individual wells of a 96 well microtiter plate. Proteinase inhibitors were added over a range of concentrations and incubated for 15 min at 25° C. Bovine chymotrypsin (100 ng) was used as a positive control, both for activity and inhibition. The chromogenic artificial substrate SAAPFpNA (N-Succinyl-L-alanyl-L-alanyl-L-prolyl-L-phenylalanine 4-nitroanilide) was then added to a final concentration of 1 mM and hydrolysis of the substrate was measured at 405 nm using the SpectraMax 250 microtiter plate reader (Molecular Devices).

The next experiment has as its target bovine chymotrypsin (Bos taurus, UniProt P00766). In words: Inhibition of bovine chymotrypsin. It is filed as biochemical. The conditions noted are these: 100 ng bovine chymotrypsin, pH 10; for % Inhibition BC: at maximum concentration tested. The procedure:
(§1) Several proteinase inhibitors were tested for their ability to inhibit the activity of the insensitive chymotrypsins. The buffer used for all assays was 500 mM CAPS, 75 mM NaCl, 2.5 mM MgCl2 at pH 10.

Experiment [3] deals with NaPI-insensitive chymotrypsins from H. punctigera (Helicoverpa punctigera, UniProt A0PGE0). Briefly: Inhibition of NaPI-insensitive chymotrypsin (gut extract depleted of trypsins and NaPI-sensitive chymotrypsins). Format: biochemical. The following applies: pH 10, 30 min preincubation at 30° C. The procedure:
The midgut was dissected from 100 fourth instar larvae and buffer soluble extracts were prepared. The gut extract was depleted of NaPI-sensitive proteases by passage through an affinity column composed of immobilized NAPI protein (C1, C2, T1-T4). […] This preparation of unbound material was used to study the pH optimum, substrate preference and effect of a range of proteinase inhibitors on the activity of the NaPI-insensitive proteinase. […] The best substrate for enzyme assays was determined using seven different commercial substrates.
as §1

The subject of experiment [4] is chymotrypsin from the gut of H. zea larvae. The conditions noted are these: cited from earlier work.
Experiment [5] relates to Agrotis ipsilon (black cutworm). The following applies: after exposure in the diet; cited from earlier work.
Experiment [6] deals with trypsin activity in gut extracts. The conditions noted are these: in vitro, cited from earlier work.

Sequence of NaPI-insensitive chymotrypsins from H. punctigera (A0PGE0 entry or part of it): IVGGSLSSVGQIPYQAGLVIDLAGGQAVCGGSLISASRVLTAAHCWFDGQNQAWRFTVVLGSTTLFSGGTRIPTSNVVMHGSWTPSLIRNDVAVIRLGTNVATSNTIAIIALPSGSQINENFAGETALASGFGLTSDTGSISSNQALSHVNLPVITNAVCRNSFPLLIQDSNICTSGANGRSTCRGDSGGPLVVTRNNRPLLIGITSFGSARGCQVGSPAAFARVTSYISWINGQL

On to `CC(C)C[C@H](NC(=O)[C@@H](NC(=O)N[C@@H](Cc1ccccc1)C(=O)O)[C@@H]1CCN=C(N)N1)C(=O)N[C@H](C=O)Cc1ccccc1` [Chymostatin, reference compound], for which, in experiment [1], the “inhibition of chymotrypsin activity, extracts from control and NaPI-fed larvae” value is reported as “all chymotrypsin activity was abolished”. The “inhibition of gut chymotrypsin activity (in words)” value in experiment [2] is listed as “totally inhibited”. Further, the “% Inhibition BC” value at bovine chymotrypsin was 100%.

B1: SBTI: soybean trypsin inhibitor (protein, UniProt P01070 25-205, looked up)
Trypsin inhibitor A: DFVLDNEGNPLENGGTYYILSDITAFGGIRAAPTGNERCPLTVVQSRNELDKGIGTIISSPYRIRFIAEGHPLSLKFDSFAVIMLCVGIPTEWSVVEDLPEGPAVKIGENKDAMDGWFRLERVSDDEFNNYKLVFCPQQAEDDKCGDIGISIDHDDGTRRLVVSKNKPLVVQFQKLDKESL
For orientation: IC50 means the point on the concentration scale where inhibition reaches its midpoint. A lower IC50 goes with higher potency. In the case of B1, the “% Inhibition Insensitive” value in experiment [3] (at maximum concentration tested) was found to be 82%. The molecule also yielded an IC50 in experiment [3] of 33 µM. For the same molecule, in experiment [4], the “inhibition of chymotrypsin activity from the gut of insects with prior exposure to SBTI in the diet” value was 35% and the “inhibition of chymotrypsin from the gut of control insects” value was 95%. Further, the “inhibition of gut chymotrypsin activity (in words)” value in experiment [2] was “failed to abolish all the chymotrysin activity”. For the same molecule, the “reduction in total gut proteolytic activity” value in experiment [5] was at most 70%. For the same molecule, in the experiment with bovine chymotrypsin, half-maximal inhibition (IC50) was put at 13 µM and the “% Inhibition BC” value came out at 94%. For the same molecule, the “inhibition of gut trypsin activity in larvae that had consumed SBTI” value in experiment [6] (48 h on diet with 1% SBTI) was 3%. Further, in experiment [6], the “inhibition of trypsin activity in gut extracts from control larvae” value is reported as 74%.
